Source: patent publication US20250121104A1 (FUSION PHARMACEUTICALS, published 2025)

Experiments:
[1] = molecular target: T1, EGFR and cMET co-expressed on the surface of tumour cell lines (HCC827, HT29, H441, H1975) (UniProt P00533 25-1210; P08581 25-1390); test: confocal fluorescence microscopy, AlexaFluor647-labelled antibody pre-bound to cells, T=0
T1 construct: whole, on cells; Target of the bispecific molecules on cells that carry both receptors; the cell line of each value stands under assay; also called EGFR and c-MET expressing cell line; EGFR and/or cMET expressing cell lines
Description: Unincorporated CellTracker™ Blue CMAC dye was removed by two washes with phenol-free RPMI using centrifugation at 300×g for 5 min at 4° C. Cells were then chilled on ice and blocked with the 10 ul FcR Blocking Reagent per 1×10^6 cells for 15 minutes. 2×10⁵ cells were aliquoted into 5 mL round-bottomed tubes and incubated with fluorescent antibodies at a final concentration of 2.5 μg/mL. After removal of unbound fluorescent reagents by centrifugation at 4° C., cells were resuspended in phenol-free RPMI containing 100 mM HEPES, 1 mM sodium pyruvate, and 1% FBS. Cells were transferred into multiple wells of a 384-well imaging plate at a density of 5,000 cells per well, and briefly centrifuged at 2,200 rpm for 2 min at 4° C. prior to image acquisition.

mouse cMET (recombinant) = mouse cMET (recombinant) (mouse, UniProt P16056 25-929, limits assumed); test: ELISA, antigen coated at 1 µg/mL, antibody titrated from 10 µg/mL
Sequence of mouse cMET (recombinant) (P16056 25-929 limits assumed): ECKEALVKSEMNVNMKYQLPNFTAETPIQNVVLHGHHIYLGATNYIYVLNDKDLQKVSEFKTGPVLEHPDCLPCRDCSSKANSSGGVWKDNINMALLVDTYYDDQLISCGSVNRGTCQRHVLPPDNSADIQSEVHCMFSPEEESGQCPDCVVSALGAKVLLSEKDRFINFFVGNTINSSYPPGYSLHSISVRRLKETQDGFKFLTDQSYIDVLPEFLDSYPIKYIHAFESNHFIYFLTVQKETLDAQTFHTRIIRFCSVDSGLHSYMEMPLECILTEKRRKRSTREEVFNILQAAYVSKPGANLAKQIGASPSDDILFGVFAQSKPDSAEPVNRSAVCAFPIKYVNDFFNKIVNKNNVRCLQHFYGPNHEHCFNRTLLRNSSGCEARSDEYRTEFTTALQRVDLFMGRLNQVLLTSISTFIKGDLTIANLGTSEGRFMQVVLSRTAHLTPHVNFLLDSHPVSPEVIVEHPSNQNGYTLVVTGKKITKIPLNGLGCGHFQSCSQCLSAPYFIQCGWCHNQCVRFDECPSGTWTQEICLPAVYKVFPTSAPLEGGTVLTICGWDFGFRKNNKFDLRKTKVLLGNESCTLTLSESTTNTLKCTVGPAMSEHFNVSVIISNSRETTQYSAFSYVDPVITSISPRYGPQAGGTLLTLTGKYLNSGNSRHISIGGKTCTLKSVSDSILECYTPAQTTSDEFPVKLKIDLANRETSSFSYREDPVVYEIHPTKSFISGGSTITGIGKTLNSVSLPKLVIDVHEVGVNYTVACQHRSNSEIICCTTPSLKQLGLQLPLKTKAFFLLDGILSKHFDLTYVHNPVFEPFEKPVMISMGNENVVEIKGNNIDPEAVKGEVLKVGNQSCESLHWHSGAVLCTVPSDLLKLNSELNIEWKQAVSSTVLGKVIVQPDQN
Description: (§1) Specificity for EGFR and cMET species paralogs and closely related family members was determined by ELISA. Briefly, antigen solutions were prepared in PBS at 1 μg/mL and 50 microliters was coated onto half area ELISA assay plates. Plates were washed and blocked with 1% BSA in PBS containing 0.005% Tween-20 (PBS-T) for one hour at room temperature. […] Wells were incubated with 50 microliters of the indicated primary antibodies diluted in PBS-T in a 1:3 dilution series, starting at 10 μg/mL and ending at 0.002 μg/mL, except for the HER4 binding mAb control, MAB1131, for which the series started at 1 μg/mL. The wells were washed 4 times in PBS-T, then 50 μl of goat anti-human Fab HRP-labeled secondary antibody, diluted 1:5000 in PBS-T, was added to each well and incubated for one hour at room temperature. […] 50 microliters of TMB stop solution was added to all wells and the absorbance was read at 450 nm on a SpectraMax M5 microplate reader. Data were analyzed in the SoftMax Pro 5 software and plotted using GraphPad Prism 7 graphing software.
(§2) To determine the species cross reactivity, ELISA assays were carried out as described above.

Ron (CD136) = molecular target: T2, Ron (CD136) (UniProt Q04912 25-957, limits assumed); test: as above
T2 sequence (looked up): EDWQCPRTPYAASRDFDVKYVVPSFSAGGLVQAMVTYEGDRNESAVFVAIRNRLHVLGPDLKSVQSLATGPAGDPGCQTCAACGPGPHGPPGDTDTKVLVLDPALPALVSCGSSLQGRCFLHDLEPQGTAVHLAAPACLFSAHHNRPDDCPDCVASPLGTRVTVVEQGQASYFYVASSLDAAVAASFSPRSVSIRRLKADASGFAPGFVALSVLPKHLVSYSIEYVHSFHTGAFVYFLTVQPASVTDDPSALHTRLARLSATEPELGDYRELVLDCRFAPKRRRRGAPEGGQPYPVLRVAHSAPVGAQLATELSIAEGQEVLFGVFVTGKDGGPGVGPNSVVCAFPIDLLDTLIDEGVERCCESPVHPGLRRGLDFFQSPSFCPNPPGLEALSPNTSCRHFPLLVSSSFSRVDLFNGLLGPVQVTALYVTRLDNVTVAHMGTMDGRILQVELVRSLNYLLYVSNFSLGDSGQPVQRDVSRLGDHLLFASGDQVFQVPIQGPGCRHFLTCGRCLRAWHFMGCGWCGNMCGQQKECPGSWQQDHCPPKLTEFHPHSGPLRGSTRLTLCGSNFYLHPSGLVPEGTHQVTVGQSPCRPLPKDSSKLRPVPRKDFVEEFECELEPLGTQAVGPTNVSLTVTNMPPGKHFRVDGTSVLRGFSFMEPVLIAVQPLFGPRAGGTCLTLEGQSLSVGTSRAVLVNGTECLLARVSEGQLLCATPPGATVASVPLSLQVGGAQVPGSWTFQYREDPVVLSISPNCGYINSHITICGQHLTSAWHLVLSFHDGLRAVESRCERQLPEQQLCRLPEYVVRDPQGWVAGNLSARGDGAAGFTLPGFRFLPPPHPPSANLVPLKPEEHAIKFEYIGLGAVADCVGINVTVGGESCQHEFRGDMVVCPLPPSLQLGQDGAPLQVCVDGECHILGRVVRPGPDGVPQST
Description: as §1, §2

Semaphorin 3a = molecular target: T3, Semaphorin 3a (UniProt Q14563 21-771, limits assumed); test: as above
T3 sequence (looked up): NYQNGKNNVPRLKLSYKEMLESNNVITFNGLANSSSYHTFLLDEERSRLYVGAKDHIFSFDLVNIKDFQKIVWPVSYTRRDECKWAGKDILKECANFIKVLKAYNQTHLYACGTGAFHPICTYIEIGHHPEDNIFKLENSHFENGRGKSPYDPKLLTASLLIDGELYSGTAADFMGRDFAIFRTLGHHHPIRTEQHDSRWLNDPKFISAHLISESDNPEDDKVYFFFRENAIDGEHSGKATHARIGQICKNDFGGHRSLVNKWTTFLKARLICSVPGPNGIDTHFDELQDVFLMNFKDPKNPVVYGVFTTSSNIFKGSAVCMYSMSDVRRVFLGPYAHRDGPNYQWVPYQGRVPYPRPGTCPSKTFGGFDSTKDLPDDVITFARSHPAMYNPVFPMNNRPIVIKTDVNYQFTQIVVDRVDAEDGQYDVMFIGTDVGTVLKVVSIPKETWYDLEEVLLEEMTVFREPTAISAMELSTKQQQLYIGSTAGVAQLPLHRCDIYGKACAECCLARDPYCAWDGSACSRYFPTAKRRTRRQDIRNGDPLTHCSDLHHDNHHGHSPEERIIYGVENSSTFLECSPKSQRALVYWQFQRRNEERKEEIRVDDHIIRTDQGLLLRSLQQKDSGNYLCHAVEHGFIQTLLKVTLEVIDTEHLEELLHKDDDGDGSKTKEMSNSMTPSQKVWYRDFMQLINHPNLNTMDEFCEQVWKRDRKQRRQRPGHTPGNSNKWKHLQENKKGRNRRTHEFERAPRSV
Description: as §1, §2

B1: RAA22/B09-57 DuetMab (bispecific antibody, V domains shown)
VH 1: QVQLVQSGAEVKKPGSSVKVSCKASGGTFSDNDFSWVRQAPGQGLEWMGAIVAVFRTETYAQKFQDRVKITADISTRTTYMELSSLRSEDTAVYYCARRLMSAISGPGAPLLMWGQGTLVTVSS
VL 1: QSALTQPRSVSGSPGQSVTISCTGTSSDVGGYNYVSWYQQHPGKAPKLMIYDVSKRPSGVPDRFSGSKSGNTASLTISGLQAEDEADYYCSSYTSSDTLEIFGGGTKLTVL
VH 2: QVQLVQSGAEVKKPGASVKVSCKASGYTFTDYYIHWVRQATGQGLEWMGWMNPNSGNTGYAQKFQGRVTMTRDTSISTAYMELSSLRSEDTAVYYCARGQGYTHSWGQGTMVTVSS
VL 2: DIQMTQSPSTLSASVGDRVTITCRASEGIYHWLAWYQQKPGKAPKLLIYKASSLASGVPSRFSGSGSGTEFTLTISSLQPDDFATYYCQQYSNYPPTFGGGTKLEIK
notes: RAA22 VH on Hole heavy chain (T366S, L368A, Y407V, Y349C) with lambda CL; cysteine insertion after S239; also called RAA22/B09 DuetMab; RAA22/B09 bispecific mAb
- fold binding on HCC827 cells over H1975 cells [1]: 8.9 fold
- binding result (mouse cMET (recombinant)): no binding (tested: 10 µg/mL)
- binding result (Ron (CD136)): no binding (tested: 10 µg/mL)
- binding result (Semaphorin 3a): no binding (tested: 10 µg/mL)
